Bridges are numbered along the chain shown (N, C = ends). Where no end group is shown, it is not given here.
B1: tricyclic peptide 17 (peptide)
chain: GCGSDEACFCPCSHPENCPMAQHC
modifications: disulfide (positions not given here)
B2: oxidized peptide 15 (peptide)
chain: GCEKATESESPCPCIFPELCPWIVCC
modifications: disulfide 12-25, 14-20, 2-26

Assays:
[1] = molecular target: T1, streptavidin (UniProt P22629 25-183); experiment: SPR; binding of peptide to streptavidin; conditions: both partners purified
T1 construct: streptavidin, model target; Source may be told in the ESI

[2] = molecular target: T2, MDM2 (UniProt Q00987 1-491); experiment: fluorescence polarisation; competition assay on MDM2 (reported assay, ref. 17); peptides purified by HPLC to >95%; tracer not named; conditions: both partners purified
T2 construct: MDM2, the protein target of pb13
T2 sequence (Q00987 whole entry): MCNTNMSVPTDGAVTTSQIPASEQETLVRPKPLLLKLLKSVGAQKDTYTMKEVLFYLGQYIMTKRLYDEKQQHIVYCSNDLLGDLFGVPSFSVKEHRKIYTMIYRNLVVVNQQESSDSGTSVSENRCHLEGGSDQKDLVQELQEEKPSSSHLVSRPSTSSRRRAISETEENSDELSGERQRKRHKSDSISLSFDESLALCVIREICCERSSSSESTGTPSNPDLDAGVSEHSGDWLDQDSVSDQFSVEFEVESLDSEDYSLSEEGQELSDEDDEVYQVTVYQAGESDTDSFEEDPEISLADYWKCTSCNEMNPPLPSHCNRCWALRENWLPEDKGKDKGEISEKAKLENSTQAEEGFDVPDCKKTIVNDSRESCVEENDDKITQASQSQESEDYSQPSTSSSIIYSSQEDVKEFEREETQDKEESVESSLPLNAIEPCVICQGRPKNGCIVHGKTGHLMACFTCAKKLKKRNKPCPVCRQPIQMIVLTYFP

T1 sequence (P22629 25-183): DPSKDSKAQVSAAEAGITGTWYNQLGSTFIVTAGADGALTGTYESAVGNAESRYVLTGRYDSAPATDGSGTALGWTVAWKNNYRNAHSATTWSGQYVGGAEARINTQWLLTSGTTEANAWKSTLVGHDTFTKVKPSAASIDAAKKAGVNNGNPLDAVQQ

| Binder | Kd [1] [nM] | Ki [2] [nM] |
| --- | --- | --- |
| B1 | 38 | – |
| B2 | – | 89 |
